From US20070036794A1 (Genentech, published 2007)
Where two headings read alike, the source gives them in different places.

Key:
[1] = target: T1, gD-tagged trkC (human trkC-gD) (human, UniProt Q16288 32-429); test: competition ELISA on gD-trkC; competitor: unlabelled 2250 (50 µg/ml); biotin-MAb 1 µg/ml; SA-HRP;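 also: negative control competitors were unlabelled human IgG2 and mouse IgG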
T1 construct: purified antigen of the ELISAs and SPR; also called gD-trkC
Method: (§1) A competition ELISA was used to get preliminary information about various groups to which these antibodies belong depending on the epitope(s) on trkC they recognize. In this assay, trkC-gD (1 μg/ml) was used as a capture antigen to coat microliter plate. A specific biotinylated anti-trkC monoclonal antibody (1 μg/ml) was added to the coated plate either alone or in presence of another anti-trkC monoclonal antibody that was unlabeled and used in excess (50 μg/ml) as compared to the labeled antibody. If biotinylated antibody and unlabeled antibody both recognize the same or overlapping epitope, they will compete for binding to the immobilized trkC, resulting in decreased binding of the labeled antibody. If they recognize different and non-overlapping epitopes, there will be no competition between them, and the binding of the labeled antibody to the immobilized trkC will not be affected. Unlabeled human IgG2 and mouse IgG were used as negative control.

[2] = target: T1, gD-tagged trkC (human trkC-gD); test: competition ELISA on gD-trkC; competitor: unlabelled 2345 (50 µg/ml); biotin-MAb 1 µg/ml; SA-HRP;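 also: negative control competitors were unlabelled human IgG2 and mouse IgG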
Method: as §1

[3] = target: T1, gD-tagged trkC (human trkC-gD); test: SPR (BIAcore), summary table
[4] = target: T2, trkC fused with a gD flag epitope, on stably transfected CHO cells (KIRA); test: cell-based or functional assay
[5] = target: T1, gD-tagged trkC (human trkC-gD); test: SPR (BIAcore), gD-trkC over immobilized IgG
[6] = target: T1, gD-tagged trkC (human trkC-gD); test: competition ELISA on gD-trkC; competitor: unlabelled 2253 (50 µg/ml); biotin-MAb 1 µg/ml; SA-HRP;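 also: negative control competitors were unlabelled human IgG2 and mouse IgG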
Method: as §1

[7] = target: T1, gD-tagged trkC (human trkC-gD); test: SPR (BIAcore), IgG over immobilized gD-trkC (400-600 RU)
[8] = target: T1, gD-tagged trkC (human trkC-gD); test: competition ELISA on gD-trkC; competitor: unlabelled 2256 (50 µg/ml); biotin-MAb 1 µg/ml; SA-HRP;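 also: negative control competitors were unlabelled human IgG2 and mouse IgG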
Method: as §1

[9] = target: wildtype trkC (reference of Table 5) (human, UniProt Q16288 32-429, limits assumed); test: binding titration on trkC point mutants; wildtype reference row
trkC mutant H318A = target: T3, trkC mutant H318A (human, UniProt Q16288 32-429, limits assumed); test: binding titration on trkC point mutants
T3 construct: point mutant in domain 5

trkC mutant R285A [10] = target: T4, trkC mutant R285A (human, UniProt Q16288 32-429, limits assumed); test: binding titration on trkC point mutants
T4 construct: point mutant in domain 5

trkC mutant N335A [11] = target: T5, trkC mutant N335A (human, UniProt Q16288 32-429, limits assumed); test: binding titration on trkC point mutants
T5 construct: point mutant in domain 5

[12] = target: T1, gD-tagged trkC (human trkC-gD); test: competition ELISA on gD-trkC; competitor: unlabelled 6.4.1 (50 µg/ml); biotin-MAb 1 µg/ml; SA-HRP;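 also: negative control competitors were unlabelled human IgG2 and mouse IgG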
Method: as §1

[13] = target: T1, gD-tagged trkC (human trkC-gD); test: competition ELISA on gD-trkC; competitor: unlabelled 2349 (50 µg/ml); biotin-MAb 1 µg/ml; SA-HRP;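 also: negative control competitors were unlabelled human IgG2 and mouse IgG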
Method: as §1

trkC mutant L286H [14] = target: T6, trkC mutant L286H (human, UniProt Q16288 32-429, limits assumed); test: binding to trkC point mutants (NB = no binding observed)
T6 construct: point mutant in domain 5

trkC mutant L284E [15] = target: T7, trkC mutant L284E (human, UniProt Q16288 32-429, limits assumed); test: as above
T7 construct: point mutant in domain 5

trkC mutant E287K [16] = target: T8, trkC mutant E287K (human, UniProt Q16288 32-429, limits assumed); test: as above
T8 construct: point mutant in domain 5

[17] = target: T1, gD-tagged trkC (human trkC-gD); test: competition ELISA on gD-trkC; competitor: unlabelled 6.1.2 (50 µg/ml); biotin-MAb 1 µg/ml; SA-HRP;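 also: negative control competitors were unlabelled human IgG2 and mouse IgG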
Method: as §1

[18] = target: T2, trkC fused with a gD flag epitope, on …; test: cell-based or functional assay; remark: listed apart in the source
trkC mutant L286H [19] = target: T6, trkC mutant L286H; test: binding titration on trkC point mutants
trkC mutant L284E [20] = target: T7, trkC mutant L284E; test: binding titration on trkC point mutants
trkC mutant E287K [21] = target: T8, trkC mutant E287K; test: binding titration on trkC point mutants
trkC mutant R285A [22] = target: T4, trkC mutant R285A; test: binding to trkC point mutants (NB = no binding observed)
[23] = target: T1, gD-tagged trkC (human trkC-gD); test: competition ELISA on gD-trkC; competitor: unlabelled 2.5.1 (50 µg/ml); biotin-MAb 1 µg/ml; SA-HRP;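 also: negative control competitors were unlabelled human IgG2 and mouse IgG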
Method: as §1

trkC mutant N335A [24] = target: T5, trkC mutant N335A; test: binding to trkC point mutants (NB = no binding observed)

T5 sequence (Q16288 32-429 S70N/N366A limits assumed): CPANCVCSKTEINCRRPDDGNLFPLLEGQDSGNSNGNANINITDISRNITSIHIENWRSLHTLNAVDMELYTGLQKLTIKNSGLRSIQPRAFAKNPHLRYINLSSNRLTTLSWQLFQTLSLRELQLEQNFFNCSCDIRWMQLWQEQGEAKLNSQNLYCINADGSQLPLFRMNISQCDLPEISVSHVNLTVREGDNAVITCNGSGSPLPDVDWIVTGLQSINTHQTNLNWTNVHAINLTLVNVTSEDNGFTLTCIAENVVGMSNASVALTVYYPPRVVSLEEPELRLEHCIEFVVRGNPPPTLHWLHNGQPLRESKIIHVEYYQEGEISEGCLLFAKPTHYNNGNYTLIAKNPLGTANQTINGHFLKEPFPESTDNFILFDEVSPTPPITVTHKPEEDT
T3 sequence (Q16288 32-429 S70N/H349A limits assumed): as the sequence (Q16288 32-429 S70N/N366A limits assumed) above, with H318A, A335N counted along it
T4 sequence (Q16288 32-429 S70N/R316A limits assumed): as the sequence (Q16288 32-429 S70N/N366A limits assumed) above, with R285A, A335N counted along it
T6 sequence (Q16288 32-429 S70N/L317H limits assumed): as the sequence (Q16288 32-429 S70N/N366A limits assumed) above, with L286H, A335N counted along it
T7 sequence (Q16288 32-429 S70N/L315E limits assumed): as the sequence (Q16288 32-429 S70N/N366A limits assumed) above, with L284E, A335N counted along it
T1 sequence (Q16288 32-429 S70N): as the sequence (Q16288 32-429 S70N/N366A limits assumed) above, with A335N counted along it
wildtype trkC (reference of Table 5), sequence (Q16288 32-429 S70N limits assumed): as the sequence (Q16288 32-429 S70N/N366A limits assumed) above, with A335N counted along it
T8 sequence (Q16288 32-429 S70N/E318K limits assumed): as the sequence (Q16288 32-429 S70N/N366A limits assumed) above, with E287K, A335N counted along it

B1: anti-trkC agonist monoclonal antibody 6.4.1 (antibody, human IgG2, V domains shown)
VH: QVQLQESGPGLVRPSETLSLTCTVSGGSISTYYWNWIRQPAGKGLEWIGRIYTSGSTNYNPSLKSRVTMSVDTSKNQFSLKLSSVTAADTAVYYCARDGGYSNPFDWGQGTLVTVSS
VL: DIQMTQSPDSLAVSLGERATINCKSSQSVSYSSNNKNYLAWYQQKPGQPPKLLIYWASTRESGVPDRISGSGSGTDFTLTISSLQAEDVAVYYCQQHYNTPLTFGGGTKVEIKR
notes: human IgG2 from Xenomouse hybridoma; heavy chain subgroup II, light chain kappa I; also called Mab 6.4.1
signal of the biotin-MAb in the competition ELISA [1]: 0.1
signal of the biotin-MAb in the competition ELISA [2]: 0.12
Kd [3]: 12 nM
EC50 (read off the curve), trkC tyrosine phosphorylation, KIRA [4]: ~3 nM
Kd [5]: 28 nM
signal of the biotin-MAb in the competition ELISA [6]: 0.03
Kd [7]: 12 nM
signal of the biotin-MAb in the competition ELISA [8]: 0.1
ratio EC50 mutant/EC50 wildtype trkC [9]: 1 ratio
ratio EC50 mutant/EC50 wildtype trkC (trkC mutant H318A): 0.7 ratio
ratio EC50 mutant/EC50 wildtype trkC (trkC mutant R285A [10]): 0.8 ratio
ratio EC50 mutant/EC50 wildtype trkC (trkC mutant N335A [11]): 0.3 ratio
signal of the biotin-MAb in the competition ELISA [12]: 0.07
signal of the biotin-MAb in the competition ELISA [13]: 0.1
binding result (trkC mutant L286H [14]): no binding
binding result (trkC mutant L284E [15]): no binding
binding result (trkC mutant E287K [16]): no binding

B2: anti-trkC agonist monoclonal antibody 2256 (antibody, mouse IgG1, V domains shown)
VH: QVQLQQPGAELVKPGASVKLSCKASGYTFTSYWMHWVKQRPGQGLEWIGEIYPSNGRTNYNEKFKSKATLTVDKSSSTAYMQLSSLTSEDSAVYYCARKYYYGNSYRSWYFDVWGAGTTLTVSS
VL: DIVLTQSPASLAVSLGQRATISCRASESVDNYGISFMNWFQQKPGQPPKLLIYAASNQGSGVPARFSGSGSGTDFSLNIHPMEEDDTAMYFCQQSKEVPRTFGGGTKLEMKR
notes: murine IgG1; heavy chain subgroup IIA, light chain kappa III
signal of the biotin-MAb in the competition ELISA [1]: 0.01
signal of the biotin-MAb in the competition ELISA [17]: 0.13
Kd [3]: 62 nM
Kd [5]: 300 nM
signal of the biotin-MAb in the competition ELISA [6]: 0.02
EC50 (read off the curve), trkC tyrosine phosphorylation, KIRA [18]: ~4 nM
Kd [7]: 62 nM
signal of the biotin-MAb in the competition ELISA [8]: 0.02
ratio EC50 mutant/EC50 wildtype trkC [9]: 1 ratio
ratio EC50 mutant/EC50 wildtype trkC (trkC mutant H318A): 0.8 ratio
ratio EC50 mutant/EC50 wildtype trkC (trkC mutant L286H [19]): 0.6 ratio
ratio EC50 mutant/EC50 wildtype trkC (trkC mutant L284E [20]): 1.1 ratio
ratio EC50 mutant/EC50 wildtype trkC (trkC mutant E287K [21]): 0.7 ratio
ratio EC50 mutant/EC50 wildtype trkC (trkC mutant N335A [11]): 0.5 ratio
signal of the biotin-MAb in the competition ELISA [12]: 0.12
signal of the biotin-MAb in the competition ELISA [13]: 0.07
binding result (trkC mutant R285A [22]): no binding

B3: anti-trkC agonist monoclonal antibody 2253 (antibody, mouse IgG1, V domains shown)
VH: QVQLQQSGAELMQPGASVKISCKSTGYTFSNFWIEWVKQRPGHGLEWIGEILPGSDNTNYNEKFKGKATFTADTSSNTAYMQLSSLTSEDSAVYYCARKNRNYYGNYVVWGAGTTLTVSS
VL: QIVLTQSPAIMSASPGEKVTITCSASSSVSYMYWFQQKPGTSPKLWIYSTSNLASGVPARFSGSGSGTSYSLTISRMEAEDAATYYCQQRSSYPLTFGAGTKLELKR
notes: murine IgG1; heavy chain subgroup IIA, light chain kappa IV
signal of the biotin-MAb in the competition ELISA [1]: 1.24
signal of the biotin-MAb in the competition ELISA [2]: 1.4
Kd [3]: 42 nM
Kd [5]: 51 nM
signal of the biotin-MAb in the competition ELISA [6]: 0
signal of the biotin-MAb in the competition ELISA [23]: 1.4
Kd [7]: 42 nM
signal of the biotin-MAb in the competition ELISA [8]: 1.34
ratio EC50 mutant/EC50 wildtype trkC [9]: 1 ratio
ratio EC50 mutant/EC50 wildtype trkC (trkC mutant H318A): 0.8 ratio
ratio EC50 mutant/EC50 wildtype trkC (trkC mutant R285A [10]): 0.9 ratio
ratio EC50 mutant/EC50 wildtype trkC (trkC mutant L286H [19]): 0.4 ratio
ratio EC50 mutant/EC50 wildtype trkC (trkC mutant L284E [20]): 0.7 ratio
ratio EC50 mutant/EC50 wildtype trkC (trkC mutant E287K [21]): 0.7 ratio
ratio EC50 mutant/EC50 wildtype trkC (trkC mutant N335A [11]): 0.5 ratio

B4: anti-trkC agonist monoclonal antibody 2345 (antibody, human IgG2, V domains shown)
VH: QVQLQESGPGLVKPSQTLSLTCTVSGGSISSGGYYWSWIRQHPEKGLEWIGYIFYSGRTYYNPSLKSRVTISVDTSKNQFSLKLNSVTAADTAVYYCARERIAAAGADYYYNGLDVWGQGTTVTVSS
VL: EIVLTQSPGTLSLSPGERATLSCRASQSVSSNYLTWYQQKPGQAPRLLIYGASSRATGIPDRFSGSGSGTDFTLTISRLEPEDFAVYYCQQYGRSPPITFGQGTRLEIKR
notes: human IgG2 from Xenomouse hybridoma; heavy chain subgroup II, light chain kappa III
signal of the biotin-MAb in the competition ELISA [1]: 0.04
signal of the biotin-MAb in the competition ELISA [17]: 0.11
signal of the biotin-MAb in the competition ELISA [2]: 0.04
Kd [3]: 12.1 nM
EC50 (read off the curve), trkC tyrosine phosphorylation, KIRA [4]: ~2 nM
signal of the biotin-MAb in the competition ELISA [6]: 0.07
signal of the biotin-MAb in the competition ELISA [23]: 0.17
Kd [7]: 12 nM
ratio EC50 mutant/EC50 wildtype trkC [9]: 1 ratio
ratio EC50 mutant/EC50 wildtype trkC (trkC mutant H318A): 1 ratio
ratio EC50 mutant/EC50 wildtype trkC (trkC mutant R285A [10]): 1 ratio
ratio EC50 mutant/EC50 wildtype trkC (trkC mutant L286H [19]): 0.5 ratio
signal of the biotin-MAb in the competition ELISA [13]: 0.02
binding result (trkC mutant L284E [15]): no binding
binding result (trkC mutant E287K [16]): no binding
binding result (trkC mutant N335A [24]): no binding

B5: anti-trkC agonist monoclonal antibody 2349 (antibody, human IgG4, V domains shown)
VH: QVQLQESGPGLVKPSQTLSLTCTVSGGSISSGYYYWSWIRQHPGKGLEWIGYIYYSGSTYYNPSLKSRLTISVDTSKNQFSLKLSSVTAADTAVYYCARERIAAAGTDYYYNGLAVWGQGTTVTVSS
VL: GIVLTQSPGTLSLSPGERATFSCRASQSGSSTYLAWYQQKPGQAPRLLIYGASSRATGIPDRFSGSGSGTDFTLTISRLEPEDFAVYYCQQYGRSPPITFGQGTRLEIKR
notes: human IgG4 from Xenomouse hybridoma; heavy chain subgroup II, light chain kappa III
signal of the biotin-MAb in the competition ELISA [1]: 0.02
signal of the biotin-MAb in the competition ELISA [17]: 0.04
signal of the biotin-MAb in the competition ELISA [2]: 0.01
Kd [3]: 23 nM
EC50 (read off the curve), trkC tyrosine phosphorylation, KIRA [4]: ~3 nM
signal of the biotin-MAb in the competition ELISA [6]: 0.03
Kd [7]: 23 nM
signal of the biotin-MAb in the competition ELISA [8]: 0.02
ratio EC50 mutant/EC50 wildtype trkC [9]: 1 ratio
ratio EC50 mutant/EC50 wildtype trkC (trkC mutant H318A): 0.7 ratio
ratio EC50 mutant/EC50 wildtype trkC (trkC mutant R285A [10]): 0.9 ratio
ratio EC50 mutant/EC50 wildtype trkC (trkC mutant L286H [19]): 0.6 ratio
ratio EC50 mutant/EC50 wildtype trkC (trkC mutant N335A [11]): 1.5 ratio
signal of the biotin-MAb in the competition ELISA [12]: 0.03
signal of the biotin-MAb in the competition ELISA [13]: 0
binding result (trkC mutant L284E [15]): no binding
binding result (trkC mutant E287K [16]): no binding

B6: neurotrophin-3 (NT-3) (ligand, UniProt P20783 139-257, looked up)
chain: YAEHKSHRGEYSVCDSESLWVTDKSSAIDIRGHQVTVLGEIKTGNSPVKQYFYETRCKEARPVKNGCRGIDDKHWNSQCKTSQTYVRALTSENNKLVGWRWIRIDTSCVCALSRKIGRT
EC50 (read off the curve), trkC tyrosine phosphorylation, KIRA [4]: 5 to 9 nM
EC50 (read off the curve), trkC tyrosine phosphorylation, KIRA [18]: 5 to 9 nM
